From patent US20090117124A1 (Pfizer, published 2009)

Tests used:
[1] = molecular target: T1, cynomolgus monkey IgE (in cynomolgus serum, Harlan Sera-Lab Ltd) (cynomolgus monkey); assay: capture ELISA, Test 1, Cyno 2
T1 construct: Serum was the source of IgE; eight serum samples; also called cynomolgus IgE; Cyno 1 to Cyno 8 serum samples
Method: (§1) Wells were washed once with 150 μL/well wash buffer (0.05% Tween-20, Sigma, Cat. No. P7949/TBS) then blocked with 150 μL/well 1% BSA (Sigma, Cat. No. A7030) in TBS for 2 hours at room temperature. Wells were washed twice with 150 μL wash buffer. 50 μL human (in-house donors) or cynomolgus serum (Harlan Sera-Lab Ltd, Loughborough) was added from neat to at least 1:16 dilution in 1% BSA/0.05% Tween-20/TBS diluent buffer. […] Wells were incubated for 2 hours at 25° C. before washing (3×150 μL wash buffer). […] Wells were incubated for 1 hour at 25° C. then washed (3×150 μL wash buffer). Streptavidin-HRP (Amersham Bioscience, Cat. No. RPN 1231) diluted 1:1000 in diluent buffer was added to all wells and incubated for 45 minutes at room temperature. Wells were washed (3×150 […] wash buffer). 50 μL OPD (Dako, Cat. No. S2045) was added to all wells and the color allowed to develop for 10 minutes before stopping the reaction with 50 μl 0.6M H₂SO₄ and the absorbance measured at 490 nm.

[2] = molecular target: T1, cynomolgus monkey IgE (in cynomolgus …); assay: capture ELISA, Test 1, Cyno 3
Method: as §1

[3] = molecular target: T1, cynomolgus monkey IgE (in cynomolgus …); assay: capture ELISA, Test 1, Cyno 5
Method: as §1

[4] = molecular target: T2, free IgE in human serum (healthy volunteers, in-house donors) (human, UniProt P01854-1 1-428); assay: capture ELISA, Test 1, human serum
T2 construct: Kept apart from the bought myeloma IgE because it is native serum IgE of single donors; also called serum IgE
T2 sequence (P01854 other isoform, or with tags, fused parts or gaps): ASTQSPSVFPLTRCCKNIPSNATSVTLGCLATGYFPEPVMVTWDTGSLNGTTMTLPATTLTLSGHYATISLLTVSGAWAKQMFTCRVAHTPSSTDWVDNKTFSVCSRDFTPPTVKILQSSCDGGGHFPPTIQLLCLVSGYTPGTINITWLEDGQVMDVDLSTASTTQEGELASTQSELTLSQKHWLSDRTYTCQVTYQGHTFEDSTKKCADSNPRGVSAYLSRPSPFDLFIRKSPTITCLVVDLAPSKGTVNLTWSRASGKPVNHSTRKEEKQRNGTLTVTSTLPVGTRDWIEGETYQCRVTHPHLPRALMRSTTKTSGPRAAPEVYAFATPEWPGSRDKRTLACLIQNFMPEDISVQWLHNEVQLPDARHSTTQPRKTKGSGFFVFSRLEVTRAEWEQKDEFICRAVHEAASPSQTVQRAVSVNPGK
Method: as §1

[5] = molecular target: T2, free IgE in human serum (healthy …); assay: serum free IgE depletion ELISA; DIN 0284
Method: (§2) The next day ELISA plates were washed 1× with 300 μL/well wash buffer (0.05% Tween-20, Sigma, Cat. No. P7949/TBS) then blocked with 150 μL/well 1% BSA (Sigma, Cat. No. A7030) in TBS for 1 hour at room temperature.

[6] = molecular target: T2, free IgE in human serum (healthy …); assay: serum free IgE depletion ELISA; DIN 0011 experiment 1
Method: as §2

[7] = molecular target: T2, free IgE in human serum (healthy …); assay: serum free IgE depletion ELISA; DIN 0321 experiment 1
Method: as §2

[8] = molecular target: T2, free IgE in human serum (healthy …); assay: serum free IgE depletion ELISA; DIN 0451 experiment 1
Method: as §2

[9] = molecular target: T2, free IgE in human serum (healthy …); assay: serum free IgE depletion ELISA; DIN 0623 experiment 1
Method: as §2

[10] = molecular target: T2, free IgE in human serum (healthy …); assay: serum free IgE depletion ELISA; DIN 0632 experiment 1
Method: as §2

B1: 5.948.1 (recombinant) (antibody, human IgG2, kappa, V domains shown)
VH: QVQLVQSGAEVKKPGASVKVSCKASGYTFTSYDINWVRQATGQGLEWMGWMDPNSGNTGYAQKFQGRVTMTRNTSISTAYMELSSLRSEDTAVYYCARGHYDSDGYYSFSGMDVWGQGTTVTVSS
VL: not shown
notes: Human IgG2 kappa; leader omitted; Two batches were tested in some assays; also called recombinant 5.948.1; 5.948.1 - Batch 1 (762.8 µg/mL)
In the case of B1, the IgE concentration detected [1] is reported as 464 ng/mL, the IgE concentration detected [2] is reported as 457 ng/mL and the IgE concentration detected [3] is reported as 837 ng/mL. For the same binder, the IgE concentration detected [4] was 468 ng/mL, the “IC25 ng/mL” value [5] was 2.45 mg/L and the “IC25 ng/mL” value [6] was 3.3 mg/L. For the same binder, the “IC25 ng/mL” value [7] was 1.34 mg/L, the “IC25 ng/mL” value [8] was 11.6 mg/L and the “IC25 ng/mL” value [9] was 0.5 mg/L. The “IC25 ng/mL” value [10] was 8.91 mg/L.
